The target of the assay is T1, streptavidin/gold (10 nm-diameter; Electron Microscopy Sciences) (UniProt P22629 37-163, limits assumed, conjugated to 10 nm gold particles).
T1 construct: Detection reagent; also called avidin-conjugated gold particles; gold particles
Kind of assay: immunogold electron microscopy control, fibrils with recruited AL1κ and no mAb added. The source says: Immunogold electron microscopy was used to investigate the binding sites of AL1κ LC on rVλ6Wil fibrils (FIG. 6A and FIG. 6B). The distribution of AL1κ LC (evidenced by the presence of anti-κ LC mAb-bound 10 nm-diameter gold particles; arrows) was generally at the ends of the rVλ6Wil fibrils and less commonly seen along the length of the fibril (arrowheads; FIG. 6A). A sample of fibrils with AL1κ LC recruited but with no mAb added served as a non-specific binding control. No gold particles were observed associated with the majority of fibrils in this preparation (FIG. 6B).
Twenty-five μg of rVλ6Wil fibrils were mixed with 1 μg […] in 200 μL of tris-buffered saline (TBS) with 0.05% tween-20 (TBST) in a 1.5 mL-volume microcentrifuge tube. The sample was rotated at RT for 24 h before being centrifuged at 20,000×g for 8 min, and the supernatant was discarded. The pellet was washed in 400 μL TBST twice by centrifugation, before the sample was split into two 200 μL-volume samples in TBST. To one sample, 10 μg each of two biotinylated anti-κ mAbs (αLKC8 and 14-6E4) were added; no antibodies were added to the other sample. Both samples were rotated 2 h at RT prior to two washes by centrifugation, as before. The pellets were resuspended in […] TBST with addition of a 1:4 dilution of streptavidin/gold stock solution ([…]; Electron Microscopy Sciences, Hatfield, Pa.). […]

T1 sequence (P22629 37-163 limits assumed): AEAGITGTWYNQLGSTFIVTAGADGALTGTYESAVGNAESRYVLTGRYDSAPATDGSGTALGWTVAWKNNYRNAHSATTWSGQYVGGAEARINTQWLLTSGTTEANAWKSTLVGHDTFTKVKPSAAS

B1: synthetic rVλ6Wil fibrils (other)
VL: NFLLTQPHSVSESPGKTVTISCTRSSGSIANNYVHWYQQRPGSSPTTVIFEDDHRPSGVPDRFSGSVDTSSNSASLTISGLKTEDEADYYCQSYDHNNQVFGGGTKLTVLG
notes: Amyloid fibril polymer of rVλ6Wil monomers; Used in suspension (pulldown), coupled to a CM-5 chip (SPR) or dried onto microplate wells; also called rVλ6Wil synthetic amyloid fibrils; rVλ6Wil fibril seed
Regarding B1, the binding result is given as “no binding”.

(Values after patent US20190041390A1 (UNIVERSITY OF TENNESSEE RESEARCH FOUNDATION, published 2019).)
